# From patent publication US6372459B1, “N-acetyl amino acid racemase” (Degussa AG, priority 1999, dated 2002)
# B1: AAR from A. orientalis subspecies lurida: N-acetyl amino acid racemase (SEQ ID NO: 2) from Amycolatopsis orientalis subspecies lurida, natural or recombinant enzyme (protein)
# chain: VKLSGVELRRVRMPLVAPFRTSFGTQSERELLLVRAVTPAGEGWGECVAMEAPLYSSEYNDAAEHVLRNHLIPALLAAEDVTAHKVTPLLAKFKGHRMAKGALEMAVLDAELRAHDRSFAAELGSTRDSVACGVSVGIMDSIPHLLDVVGGYLDEGYVRIKLKIEPGWDVEPVRQVRERFGDDVLLQVDANTAYTLGDAPLLSRLDPFDLLLIEQPLEEEDVLGHAELAKRIRTPICLDESIVSAKAAADAIKLGACQIVNIKPGRVGGYLEARRVHDVCAAHGIAVWCGGMIETGLGRAANVALASLPGFTLPGDTSASGRFYRTDITEPFVLDAGHLPVPTGPGLGVTPIPDLLDEVTTEKAWIGS
# What was measured:
# [1] = standard enzyme test for racemase (AAR) activity, HPLC detection; assay type: biochemical, Amycolatopsis orientalis subspecies lurida
# From the text: The AAR activity was followed up in a coupled enzymatic assay (Diagram 1), in that the formation of a deacetylated amino acid from an N-acetyl-D-amino acid, methionine here, was detected using the HPLC system I. The L-specific […] from pig kidneys or Aspergillus oryzae served as the auxiliary enzymes. [drawing 1]
# Further characterization of the AAR took place using the HPLC system II. Using this system, it was possible to study the activity of the AAR directly. In this way, it was possible to do without the auxiliary enzyme, the acylase, so that it was possible to avoid disruptive interference activity.
# Crude extracts of the superexpression clone, […]. purified enzyme fractions, were used in an enzyme test, in that it was possible to detect the formation of L-methionine from N-acetyl-D-methionine (see Diagram 1), via HPLC:
# The standard enzyme test (modified according to Tokuyama et al., Appl. Microbiol. Biotechnol. (1994), 40, 835-840; ibid., Appl. Microbiol. Biotechnol. (1995a), 42, 853-859), was composed as follows:
# Solvent: Tris/HCl, pH 7.5, 50 mM
# N-acetyl-D-methionine 25 mM
# Acylase I (ASch or AAsp) 1 U
# Protein 2-150 μg purified protein or total protein
# In this connection, acylase I and Co^2+ are present in excess, so that the AAR reaction is the step that determines the speed. Incubation took place for 10-40 min at 30° C. The reaction was then stopped by boiling for 3 min. Analysis of the reaction products took place using HPLC (System I).
# Unless mentioned otherwise, acylase I from pig kidneys (ASch) was used in the enzyme test, and Co^2+, was used as the ion (CoCl2×6H2O). Alternatively, however, acylase I from Aspergillus oryzae (AAsp) was also used.
# In assays that were analyzed using the HPLC system II, the acylase could be left out, since it is possible to separate and analyze N-acetyl amino acids directly, enantioselectively, with this system.
# Other than Co^2+ (CoCl2×6H2O), other bivalent ions, such as MnCl2×4H2O, […], and MgCl2×6H2O were used in various concentrations (0.1-10 mM).
# Substrate inhibition was tested in that the activity of the AAR was mixed with 25 to 400 mM N-acetyl-D-methionine as the substrate.
# [2] = as above; assay type: biochemical, Amycolatopsis orientalis subspecies lurida; settings: N-unprotected amino acids as substrate
molecule,measurement,setting,value
B1,optimum pH,[1],8
same,increase in the activity as compared with the activity without metal ion,[1]; 1 mM CoCl2×6H2O in the assay,1250%
same,specific AAR activity after purification,[1]; 2 mM CoCl2×6H2O in the assay,30.6 U/mg
same,specific activity higher than the one found for racemase by Tokuyama and Hatano,[1]; 2 mM CoCl2×6H2O in the assay,approximately 30.8%
same,activity,[1]; 10 mM CoCl2×6H2O in the assay,37.5 U/mg
same,activity with Mg in comparison with cobalt substitution,"[1]; MgCl2×6H2O at 10 mM, standard enzyme assay",about 40%
same,activity with Mn in comparison with cobalt substitution,"[1]; MnCl2×4H2O at 10 mM, standard enzyme assay",about 40%
same,substrate concentration at which substrate inhibition occurs,"[1]; N-acetyl-D-methionine as substrate, 25 to 400 mM tested",greater than 200 mM
same,AAR activity in crude extracts of the expression clone,[1]; crude extracts of E. coli BL21 (DE3) with pAAR3-21I,0.6-1.2 U/mg total protein
same,more active than the racemase from A. sp. TS-1-60,[1]; same CoCl2×6H2O concentration in the assay,152%
same,conversion of amino acids not protected with N-acetyl,[2],does not convert
same,conversion of amino acids not protected with N-acetyl,[2]; listed as AAR,not converted
